A word on the koff: it is a measure of how fast the partners let go of each other. High values mean a short-lived complex, low ones a long-lived complex. The Kd is the equilibrium constant for the complex coming apart. A low value points to higher affinity. What is called kon is a measure of how fast the partners come together. The low end stands for slow association, the high end for fast association.

Assay [1] addresses full-length FLAG-tagged human TSLPR and full-length HA-tagged human IL-7Ralpha co-expressed on HEK293T cells (human) (UniProt Q9HC73). In words: cell-based or functional assay.
Assay [2] addresses T1, C-terminally biotinylated human TSLP_R127A_R130S (pHL-TSLP_R127A_R130S-AVITAG construct) (human, UniProt Q969D9 29-159, specific C-terminal in vivo biotinylation on the AVITAG).
T1 construct: Made in HEK293T cells with BirA co-transfection; immobilised on streptavidin biosensors for BLI; also called biotinylated TSLP; not shown: C-terminal AVITAG (and purification tag) of the pHL-AVITAG vector
In words: biolayer interferometry (Octet RED96), biotinylated TSLP on streptavidin biosensors, 1:1 model.

Assay [3] addresses T1, C-terminally biotinylated human …. As to the kind of experiment: biolayer interferometry (Octet RED96), biotinylated TSLP on streptavidin biosensors, 1:1 model, average of three replicates. A general note: In BLI a coated tip is dipped into the sample, and binding shifts an interference pattern.
Protocol: All BLI experiments were performed in PBS buffer supplemented with 0.01% (w/v) BSA and 0.002% (v/v) Tween 20, with an Octet RED96 instrument (ForteBio), operating at 25° C.
All data were fitted with the FortéBio Data Analysis 9.0.0.4 software using a 1:1 ligand model. The reported values for the fitted parameters represent the average (and standard deviation) from three replicate measurements.

T1 sequence (Q969D9 29-159 R127A/R130S limits assumed): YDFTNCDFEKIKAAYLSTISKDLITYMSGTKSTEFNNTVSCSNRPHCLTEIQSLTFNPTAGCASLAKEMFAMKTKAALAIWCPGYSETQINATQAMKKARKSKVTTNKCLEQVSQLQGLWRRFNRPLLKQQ
full-length FLAG-tagged human TSLPR and full-length HA-tagged human IL-7Ralpha co-expressed on HEK293T cells (human), sequence (Q9HC73 23-371, chain 1 of 2): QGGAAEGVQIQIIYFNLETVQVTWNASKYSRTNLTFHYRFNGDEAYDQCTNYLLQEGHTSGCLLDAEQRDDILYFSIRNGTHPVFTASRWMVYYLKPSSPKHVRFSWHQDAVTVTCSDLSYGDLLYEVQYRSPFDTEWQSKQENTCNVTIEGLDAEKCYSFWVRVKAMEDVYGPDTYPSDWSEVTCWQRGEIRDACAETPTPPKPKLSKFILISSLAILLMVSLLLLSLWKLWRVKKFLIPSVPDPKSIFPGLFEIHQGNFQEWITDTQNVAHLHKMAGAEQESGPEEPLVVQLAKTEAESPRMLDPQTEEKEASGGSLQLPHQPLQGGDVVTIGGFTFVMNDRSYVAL
full-length FLAG-tagged human TSLPR and full-length HA-tagged human IL-7Ralpha co-expressed on HEK293T cells (human), sequence (P16871 21-459, chain 2 of 2, further chain): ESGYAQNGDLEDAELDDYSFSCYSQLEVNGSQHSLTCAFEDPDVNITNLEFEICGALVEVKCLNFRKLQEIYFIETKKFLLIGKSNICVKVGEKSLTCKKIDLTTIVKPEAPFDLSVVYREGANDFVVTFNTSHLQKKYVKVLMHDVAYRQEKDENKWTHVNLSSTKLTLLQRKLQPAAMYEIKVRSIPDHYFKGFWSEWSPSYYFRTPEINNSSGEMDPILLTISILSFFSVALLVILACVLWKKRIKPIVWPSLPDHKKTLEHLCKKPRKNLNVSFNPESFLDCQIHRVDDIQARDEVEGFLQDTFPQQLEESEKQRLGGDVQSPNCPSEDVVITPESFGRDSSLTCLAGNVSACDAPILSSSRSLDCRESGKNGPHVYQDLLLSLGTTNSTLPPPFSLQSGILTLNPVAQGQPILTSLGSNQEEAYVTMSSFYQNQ

In assay [1], “human TSLP_R127A_R130S, mammalian-cell derived recombinant, C-terminal His-tag (from UniProt Q969D9 29-159) (ligand)” had an STAT5-dependent luciferase activity in HEK293T cells transfected with full-length TSLPR and IL-7Ralpha of 9 pM.

B1: human TSLP-trap1 (designed binder)
chain: GAAEGVQIQIIYFNLETVQVTWNASKYSRTNLTFHYRFNGDEAYDQCTNYLLQEGHTSGCLLDAEQRDDILYFSIRNGTHPVFTASRWMVYYLKPSSPKHVRFSWHQDAVTVTCSDLSYGDLLYEVQYRSPFDTEWQSKQENTCNVTIEGLDAEKCYSFWVRVKAMEDVYGPDTYPSDWSEVTCWQRGEIRDACAETPTPPKPKLSKSRGGSGGSGGSGGSGGSGGSGGSGGSGGSGGSGGSGGSGGSGGSGGSGGSGGSGGSGGSGGSLQESGYAQNGDLEDAELDDYSFSCYSQLEVNGSQHSLTCAFEDPDVNTTNLEFEICGALVEVKCLNFRKLQEIYFIETKKFLLIGKSNICVKVGEKSLTCKKIDLTTIVKPEAPFDLSVIYREGANDFVVTFNTSHLQKKYVKVLMHDVAYRQEKDENKWTHVNLSSTKLTLLQRKLQPAAMYEIKVRSIPDHYFKGFWSEWSPSYYFRTPEINNSSGEMDGTKHHHHHH
notes: Monomeric single chain fusion protein; Produced in T-REx-293 cells
In assay [2], B1 had a dissociation rate constant (koff) of 1.72e-05 s⁻¹. In assay [3], the affinity, expressed as Kd, was 0.12 nM and the on-rate constant (kon) is 140000 M⁻¹ s⁻¹.

(Values after patent US20190127440A1 (VIB VZW, published 2019).)
